Test results as given in US20250313631A1 (HUMMINGBIRD BIOSCIENCE PTE, published 2025).

T1: human B7H7 (human, UniProt Q9UM44 23-344)
T1 construct: also called HHLA2
T1 sequence (looked up): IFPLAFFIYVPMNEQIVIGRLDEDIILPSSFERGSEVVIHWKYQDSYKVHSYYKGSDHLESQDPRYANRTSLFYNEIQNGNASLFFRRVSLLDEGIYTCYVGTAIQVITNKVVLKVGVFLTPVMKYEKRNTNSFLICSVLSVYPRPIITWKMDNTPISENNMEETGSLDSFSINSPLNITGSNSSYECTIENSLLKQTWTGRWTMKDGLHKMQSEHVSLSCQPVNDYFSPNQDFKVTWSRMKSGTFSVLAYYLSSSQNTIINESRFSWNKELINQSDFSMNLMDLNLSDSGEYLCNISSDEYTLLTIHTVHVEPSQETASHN

T2: human B7H6 (human, UniProt Q68D85 25-262)
T2 construct: also called NCR3LG1
T2 sequence (looked up): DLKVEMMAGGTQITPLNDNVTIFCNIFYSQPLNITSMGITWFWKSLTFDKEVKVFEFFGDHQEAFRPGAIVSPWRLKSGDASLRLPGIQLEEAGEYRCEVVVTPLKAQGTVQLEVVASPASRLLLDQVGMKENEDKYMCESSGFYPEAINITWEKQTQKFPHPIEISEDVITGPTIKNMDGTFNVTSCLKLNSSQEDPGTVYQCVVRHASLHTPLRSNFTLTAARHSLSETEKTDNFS

T3: human B7H3 (human, UniProt Q5ZPR3 29-461, limits assumed)
T3 construct: also called CD276
T3 sequence (looked up): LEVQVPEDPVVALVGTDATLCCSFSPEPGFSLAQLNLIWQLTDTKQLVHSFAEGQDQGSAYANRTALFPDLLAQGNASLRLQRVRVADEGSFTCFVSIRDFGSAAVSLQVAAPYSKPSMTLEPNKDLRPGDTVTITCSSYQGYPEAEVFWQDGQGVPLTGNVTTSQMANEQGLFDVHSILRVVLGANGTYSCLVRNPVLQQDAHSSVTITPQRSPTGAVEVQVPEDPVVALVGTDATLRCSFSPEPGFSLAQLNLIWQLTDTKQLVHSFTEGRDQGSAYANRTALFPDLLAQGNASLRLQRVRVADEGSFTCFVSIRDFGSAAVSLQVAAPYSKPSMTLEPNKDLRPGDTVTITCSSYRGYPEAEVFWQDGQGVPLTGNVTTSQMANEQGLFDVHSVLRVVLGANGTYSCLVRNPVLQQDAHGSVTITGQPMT

T4: human B7H4 (human, UniProt Q7Z7D3 25-258, limits assumed)
T4 construct: also called VTCN1
T4 sequence (looked up): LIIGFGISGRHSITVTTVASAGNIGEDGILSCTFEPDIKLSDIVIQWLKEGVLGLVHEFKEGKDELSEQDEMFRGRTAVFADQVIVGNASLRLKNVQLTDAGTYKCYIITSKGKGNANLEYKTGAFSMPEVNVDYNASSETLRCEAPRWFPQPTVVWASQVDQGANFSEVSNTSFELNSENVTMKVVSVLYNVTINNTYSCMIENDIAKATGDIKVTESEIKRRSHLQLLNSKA


Experiments:
[1] = molecular target: T1, human B7H7; experiment: ELISA, plate coated with the antigen
[2] = molecular target: T2, human B7H6; experiment: ELISA, plate coated with the antigen
[3] = molecular target: human CTLA4 (human, UniProt P16410 36-162); experiment: ELISA, plate coated with the antigen
human CTLA4, sequence (P16410 36-162 limits assumed): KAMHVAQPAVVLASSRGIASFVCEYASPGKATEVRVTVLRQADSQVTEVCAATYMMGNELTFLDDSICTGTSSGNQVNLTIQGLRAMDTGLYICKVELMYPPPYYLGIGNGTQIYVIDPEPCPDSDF

[4] = molecular target: T3, human B7H3; experiment: ELISA, plate coated with the antigen
[5] = molecular target: human PD-1 (human, UniProt Q15116 25-167); experiment: ELISA, plate coated with the antigen
human PD-1, sequence (Q15116 25-167 limits assumed): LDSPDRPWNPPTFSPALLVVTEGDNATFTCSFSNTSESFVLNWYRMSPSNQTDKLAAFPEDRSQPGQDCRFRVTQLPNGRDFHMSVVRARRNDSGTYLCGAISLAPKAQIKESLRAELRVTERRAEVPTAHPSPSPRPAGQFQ

[6] = molecular target: T4, human B7H4; experiment: ELISA, plate coated with the antigen
[7] = molecular target: T5, recombinant cynomolgus macaque VISTA (His-tagged) (cynomolgus macaque, UniProt A0A7N9IB00 33-194); experiment: ELISA, NHP VISTA-HIS protein coated; ELISA, NHP (cynomolgus) VISTA-HIS
T5 construct: also called cyno VISTA; cynomolgus monkey VISTA
Description: (§1) 384-well plates were coated with 1 μg/ml of target antigen diluted in PBS for 16 hrs at 4° C. […] After washing, plates were developed with colorimetric detection substrate 3,3′,5,5′-tetramethylbenzidine (Turbo-TMB; Pierce) for 10 min.

[8] = molecular target: T6, recombinant human VISTA (His-tagged) (human, UniProt Q9H7M9 33-194); experiment: antigen-binding ELISA; HMBD-002 10 mg/mL in F10, day 0
T6 construct: bought soluble protein (Sino Biological); also called hVISTA; human VISTA polypeptide

[9] = molecular target: T6, recombinant human VISTA (His-tagged); experiment: antigen-binding ELISA, day 30 at 40°C
[10] = molecular target: T6, recombinant human VISTA (His-tagged); experiment: antigen-binding ELISA; reference standard run with the day 10 samples
[11] = molecular target: T6, recombinant human VISTA (His-tagged); experiment: antigen-binding ELISA; HMBD-002 10 mg/mL in F5, day 0
[12] = molecular target: T6, recombinant human VISTA (His-tagged); experiment: antigen-binding ELISA; HMBD-002 10 mg/mL in F6, day 0
[13] = molecular target: T3, human B7H3; experiment: ELISA, plate coated with human B7H3, antibody titrated
Description: as §1

[14] = molecular target: T6, recombinant human VISTA (His-tagged); experiment: antigen-binding ELISA; HMBD-002 in F6, day 10 at 40°C
[15] = molecular target: T7, cynomolgus macaque VISTA expressed on cells (cynomolgus macaque, UniProt A0A7N9IB00 33-311); experiment: flow cytometry, HEK293T cells expressing the NHP VISTA ortholog
T7 construct: whole, on cells; also called NHP VISTA on HEK293T cells; VISTA on NHP CD11b+ myeloid cells
Description: To identify myeloid cells, PBMCs were further incubated with CD45 FITC and CD11b PE. Cells were washed again and resuspended in 200 μL of FACS flow buffer (PBS with 5 mM EDTA) for flow cytometric analysis using MACSQuant 10 (Miltenyi). After acquisition, all raw data were analyzed using Flowlogic software. Cells were gated using forward and side scatter, and the percentage of positive cells was determined.

[16] = molecular target: T6, recombinant human VISTA (His-tagged); experiment: antigen-binding ELISA; HMBD-002 in F10, day 10 at 40°C
[17] = molecular target: T6, recombinant human VISTA (His-tagged); experiment: antigen-binding ELISA; HMBD-002 in F1, day 30 at 40°C
[18] = molecular target: T6, recombinant human VISTA (His-tagged); experiment: ELISA on coated human VISTA, antibody diluted in buffer of pH 7.5
Description: as §1

binding result [1] | binding result [2] | binding result [3] | binding result [4] | binding result [5] | binding result [6] | EC50 [7] [nM] | EC50 [8] [nM] | fold increase in affinity [9] [fold] | EC50 [10] [nM] | EC50 [11] [nM] | EC50 [12] [nM] | binding result [13] | EC50 [14] [nM] | EC50 [15] [nM] | EC50 [16] [nM] | EC50 [17] [nM] | EC50 [18] [nM] | Binder
no binding (tested: log -7.5 M) | no binding (tested: log -7.5 M) | no binding (tested: log -7.5 M) | no binding (tested: log -7.5 M) | no binding (tested: log -7.5 M) | no binding (tested: log -7.5 M) |  |  |  |  |  |  |  |  |  |  |  |  | anti-VISTA clone V4-C26 IgG1 (antibody) heavy: not shown light: EIVLTQSPATLSLSPGERATLSCRASSSVGYIHWYQQKPGQAPRPIIYTTSNRATGIPARFSGSGSGTDNTLTISSLEPEDSAVYYCQQWSSYPPITFGGGTKLEVKRTVAAPSVFIFPPSDEQLKSGTASVVCLLNNFYPREAKVQWKVDNALQSGNSQESVTEQDSKDSTYSLSSTLTLSKADYEKHKVYACEVTHQGLSSPVTKSFNRGEC
 |  |  |  |  |  | 0.0121 | 0.0321 | 1.65 | 0.0253 | 0.031 | 0.0294 | no binding (tested: about 3e-8 M) | 0.0306 | 2.57 | 0.0281 | 0.0215 | 0.0287 | V4-C26 hIgG4 (antibody, human IgG4 (S228P)/kappa format; also called HMBD-002; HMBD-002-V4C26) heavy: not shown light: EIVLTQSPATLSLSPGERATLSCRASSSVGYIHWYQQKPGQAPRPIIYTTSNRATGIPARFSGSGSGTDNTLTISSLEPEDSAVYYCQQWSSYPPITFGGGTKLEVKRTVAAPSVFIFPPSDEQLKSGTASVVCLLNNFYPREAKVQWKVDNALQSGNSQESVTEQDSKDSTYSLSSTLTLSKADYEKHKVYACEVTHQGLSSPVTKSFNRGEC
